The target of this series is T1, Flag-Atxn1-82Q-HA, P54253.
T1 chain: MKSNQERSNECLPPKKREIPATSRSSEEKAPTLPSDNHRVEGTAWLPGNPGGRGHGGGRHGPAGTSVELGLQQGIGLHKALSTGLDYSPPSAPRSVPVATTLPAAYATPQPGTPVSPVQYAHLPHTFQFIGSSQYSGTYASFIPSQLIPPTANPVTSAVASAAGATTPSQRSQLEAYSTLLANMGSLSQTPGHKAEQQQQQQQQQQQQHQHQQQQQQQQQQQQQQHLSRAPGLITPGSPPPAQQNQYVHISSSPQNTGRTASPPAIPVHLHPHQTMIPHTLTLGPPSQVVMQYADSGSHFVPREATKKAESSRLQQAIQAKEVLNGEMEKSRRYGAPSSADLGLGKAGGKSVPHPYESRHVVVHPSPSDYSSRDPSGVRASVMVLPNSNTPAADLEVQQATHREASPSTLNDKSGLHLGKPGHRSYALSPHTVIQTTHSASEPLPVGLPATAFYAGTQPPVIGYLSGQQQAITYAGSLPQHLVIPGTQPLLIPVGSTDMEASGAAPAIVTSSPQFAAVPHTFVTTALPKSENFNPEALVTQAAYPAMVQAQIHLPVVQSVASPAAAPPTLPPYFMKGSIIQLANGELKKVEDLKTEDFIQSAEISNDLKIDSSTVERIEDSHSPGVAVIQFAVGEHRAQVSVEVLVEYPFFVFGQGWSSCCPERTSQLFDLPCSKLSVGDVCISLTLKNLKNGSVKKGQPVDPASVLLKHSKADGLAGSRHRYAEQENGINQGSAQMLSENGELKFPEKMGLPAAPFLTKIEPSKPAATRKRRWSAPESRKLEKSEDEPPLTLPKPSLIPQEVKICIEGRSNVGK

The source of these data is patent publication US20230313190.

B1: GST-rRNF4 (protein)
chain: MSTRNPQRKRRGGAVNSRQTQKRTRETTSTPEISLEAEPIELVETVGDEIVDLTCESLEPVVVDLTHNDSVVIVEERRRPRRNGRRLRQDHADSCVVSSDDEELSKDKDVYVTTHTPRSTKDEGTTGLRPSGTVSCPICMDGYSEIVQNGRLIVSTECGHVFCSQCLRDSLKNANTCPTCRKKINHKRYHPIYI
Regarding B1, the “in vitro ubiquitination assay” value is “the unmodified Atxn1 82Q protein was not ubiquitinated”.
